This experiment concerns the target CNGB3N-EGFP-F (striped bass (Morone saxatilis)) (UniProt Q3I0N1). The experiment can be described thus: FRET or BRET.

Turning to “CNG-modulin-HaloTag-TMR (from UniProt H8PG32 1-301) (natural protein)”, the E FRET (FRET efficiency), mean was 0.3.

For the origin of these results see publication PMC3296131.
